Experimental data published in patent US20250313626A1 (HARBOUR BIOMED SHANGHAI, published 2025).

T1: human CD200R1 isoform a on CHOK1 cells (CHOK1/hCD200R1a) (human, UniProt Q8TD46 25-348)
T1 construct: also called CHOK1/CD200R1a
T1 sequence: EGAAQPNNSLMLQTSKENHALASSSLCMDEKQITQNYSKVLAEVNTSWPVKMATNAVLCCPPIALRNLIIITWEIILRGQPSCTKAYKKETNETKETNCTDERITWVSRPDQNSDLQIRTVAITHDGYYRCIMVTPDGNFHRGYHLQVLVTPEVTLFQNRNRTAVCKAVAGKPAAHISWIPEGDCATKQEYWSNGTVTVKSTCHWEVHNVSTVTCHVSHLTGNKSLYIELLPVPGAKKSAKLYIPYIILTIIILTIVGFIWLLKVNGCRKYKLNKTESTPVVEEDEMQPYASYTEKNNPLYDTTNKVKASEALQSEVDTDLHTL

T2: Cynomolgus macaques CD200R1 isoform a on CHOK1 cells (CHOK1/cynoCD200R1a) (Cynomolgus macaques)
T2 chain: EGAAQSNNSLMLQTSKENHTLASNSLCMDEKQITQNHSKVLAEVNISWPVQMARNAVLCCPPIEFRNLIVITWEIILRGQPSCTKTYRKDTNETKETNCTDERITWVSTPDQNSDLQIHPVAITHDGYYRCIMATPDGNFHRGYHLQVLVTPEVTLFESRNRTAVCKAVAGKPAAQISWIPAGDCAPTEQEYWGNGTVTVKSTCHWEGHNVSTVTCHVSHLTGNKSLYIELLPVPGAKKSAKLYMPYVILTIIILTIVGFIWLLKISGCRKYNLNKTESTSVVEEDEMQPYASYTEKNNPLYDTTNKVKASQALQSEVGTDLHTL

T3: CD200R1a on PathHunter Jurkat CD200R1a signaling cells (Eurofins DiscoverX, 93-1136C19) (human, UniProt Q8TD46 25-348)
T3 sequence: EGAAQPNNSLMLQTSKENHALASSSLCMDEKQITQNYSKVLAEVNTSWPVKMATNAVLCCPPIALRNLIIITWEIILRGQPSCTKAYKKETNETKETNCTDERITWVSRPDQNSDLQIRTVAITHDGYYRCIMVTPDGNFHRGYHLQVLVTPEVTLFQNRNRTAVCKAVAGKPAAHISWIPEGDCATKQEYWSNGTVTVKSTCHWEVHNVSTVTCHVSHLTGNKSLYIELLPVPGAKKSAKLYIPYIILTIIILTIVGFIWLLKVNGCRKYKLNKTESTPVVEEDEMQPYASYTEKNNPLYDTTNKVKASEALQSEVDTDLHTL


What was measured:
[1] = molecular target: T1, human CD200R1 isoform a on CHOK1 cells …; assay: flow cytometry blocking assay: antibody titrated against biotin-labelled human CD200 binding to CHOK1/hCD200R1a cells; head prints EC50 without unit, x axis Log [Ab] (nM), y axis Inhibition %
Procedure: (§1) In brief, CHOK1/hCD200R1a cells were digested and resuspended in 2% BSA in PBS. […] The cells were placed at 4° C. and incubated for 1 hour in the dark. […] 100 μL/well of pre-cooled PBS containing 2% BSA was added to rinse the cells twice, centrifugation was performed at 500 g, 4° C. for 5 minutes, and the supernatant was discarded. Fluorescent secondary antibody (PE Streptavidin, BD, Cat #: 554061, 1:200) was added at 100 μL/well, and incubation was performed at 4° C. for 30 minutes in the dark. The cells were washed twice with 200 μL/well of pre-cooled PBS, and were centrifuged at 500 g, 4° C. for 5 minutes, and the supernatant was discarded. Finally, 200 μL/well of pre-cooled PBS was used to resuspend the cells, and the fluorescence signal values were read using ACEA Novocyte 3000 flow cytometer. IC50 values were calculated.

[2] = molecular target: T1, human CD200R1 isoform a on CHOK1 cells …; assay: flow cytometry, CHOK1/hCD200R1a cells; table beside the curves, head without unit, x axis Log [Ab] (nM)
Procedure: (§2) This example is intended to investigate the in vitro binding activity of human anti-CD200R1 monoclonal antibodies to human/Cynomolgus macaques CD200R1a expressed on the surface of cells. The anti-CD200R1 antibodies were produced as described in Example 3.4 and the binding experiments at the cell level were performed using CHOK1/hCD200R1a and CHOK1-cynoCD200R1a.
(§3) Briefly, CHOK1/hCD200R1a cells and CHOK1-cynoCD200R1a cells were digested, and collected, and then were resuspended in PBS containing 2% BSA, respectively. The cell density was adjusted to 1×10⁶ cells/mL. The cells were seeded in a 96-well V-bottom plate (Corning, #3894) at 100 μL/well, followed by the addition of test antibodies and reference antibodies in a series diluted concentration, each at 100 μL/well. The cells were incubated away from light at 4° C. for 1 h. Thereafter, the cells in each well were rinsed twice with 100 μL of pre-cooled PBS containing 2% BSA, and centrifuged at 500 g at 4° C. for 5 min, and then the supernatant was discarded. […] Finally, the cells in each well were resuspended in 200 μL of pre-cooled PBS containing 2% BSA, and the fluorescence signal values were read using a BD CantoII flow cytometer.

[3] = molecular target: T1, human CD200R1 isoform a on CHOK1 cells …; assay: flow cytometry, CHOK1/hCD200R1a cells (FITC-Mean); table beside the curves
Procedure: as §2
Briefly, CHOK1/hCD200R1a cells and CHOK1-cynoCD200R1a cells were digested, and collected, and then were resuspended in PBS containing 2% BSA, respectively. The cell density was adjusted to 1×10⁶ cells/mL. The cells were seeded in a 96-well V-bottom plate (Corning, #3894) at 100 μL/well, followed by the addition of test antibodies and reference antibodies in a series diluted concentration, each at 100 μL/well. The cells were incubated away from light at 4° C. for 1 h. Thereafter, the cells in each well were rinsed twice with 100 μL of pre-cooled PBS containing 2% BSA, and centrifuged at 500 g at 4° C. for 5 min, and then the supernatant was discarded. 100 μL of fluorescent secondary antibody (Alexa Fluor 488-conjugated AffiniPure Goat Anti-Human IgG, Fcγ Fragment Specific, Jackson, #109-545-098, diluted in a 1:1000 ratio) was added in each well, and the plate was incubated away from light at 4° C. for 1 h. The cells in each well were rinsed twice with 100 μL of pre-cooled PBS containing 2% BSA, and centrifuged at 500 g at 4° C. for 5 min, and then the supernatant was discarded. Finally, the cells in each well were resuspended in 200 μL of pre-cooled PBS containing 2% BSA, and the fluorescence signal values were read using a BD CantoII flow cytometer.

[4] = molecular target: T2, Cynomolgus macaques CD200R1 isoform a …; assay: flow cytometry, CHOK1/cynoCD200R1a cells (APC-A Mean); table beside the curves
[5] = molecular target: T2, Cynomolgus macaques CD200R1 isoform a …; assay: flow cytometry, CHOK1/cynoCD200R1a cells; table beside the curves
Procedure: as §2, §3

[6] = molecular target: T1, human CD200R1 isoform a on CHOK1 cells …; assay: flow cytometry blocking assay: biotin-labelled human CD200 binding to CHOK1/hCD200R1a cells; y axis Inhibition %
Procedure: as §1

[7] = molecular target: T2, Cynomolgus macaques CD200R1 isoform a …; assay: flow cytometry, CHOK1/cynoCD200R1a cells; table beside the curves, head without unit, x axis Log [Ab] (nM)
Procedure: as §2, §3

[8] = molecular target: T1, human CD200R1 isoform a on CHOK1 cells …; assay: flow cytometry, CHOK1/hCD200R1a cells; table beside the curves
Procedure: as §2, §3

[9] = molecular target: T1, human CD200R1 isoform a on CHOK1 cells …; assay: flow cytometry blocking assay: antibody titrated against human CD200 binding to CHOK1/hCD200R1a cells
[10] = molecular target: T3, CD200R1a on PathHunter Jurkat CD200R1a …; assay: cell-based or functional assay

Binder | EC50 [1] [nM] | EC50 [2] [nM] | MFI(Max) [3] | EC50 [4] [nM] | MFI (MAX) [4] | MFI(Max) [5] | Blocking(Max) [6] [%] | EC50 [7] [nM] | MFI(Max) [8] | IC50 (read off the curve) [9] [nM] | IC50 of the inhibition of CD200-induced PathHunter Jurkat CD200R1a luminescence (CHOK1/hCD200 cells as CD200 source) [10] [nM]
PR002906 (antibody, V domains shown, also called recombinant IgG1 antibody of huDX182) VH: QVQLQESGPGLVKPSETLSLTCTVSGYTITSGYDWSWIRQPPGKGLEWIGYINYGGSTNYKPSLGSRVTISVDTSKNQFSLKLSSVTAADTAVYYCARYNEYKSYIYDWYFDFWGQGTLVTVSS VL: DIQMTQSPSSLSASVGDRVTITCKASKNIRSYLAWYQQKPGKAPKLLIYSGSTLHSGVPSRFSGSGSGTDFTLTISSLQPEDFATYYCQQHHEYPLTFGQGTKVEIKR | 0.463 | 15.2 | 13900 | 16.4 | 23900 | 6440 | 96.6 | 15.5 | 131000 |  | 
PR005509 (antibody, human IgG1, kappa, L234A L235A, V domains shown) VH: QVQLVESGGGVVQPGRSLRLSCAASGFTFSSYGFHWVRQAPGKGLEWLGLIWSDGSNKYYADSVKGRFTISRDNSKNTLYLQMNSLRAEDTAVYYCARDRIVGAGFDYWGQGTLVTVSS VL: not shown |  | 6.57 |  |  |  | 19900 |  | 4.2 | 101000 |  | 
PR007973 (antibody, human IgG1, kappa, V domains shown, PTM variant of PR006839 (human IgG1)) VH: QVQLVESGGGVVQPGRSLRLSCAASGFTFSSYGFHWVRQAPGKGLEWLGIIWSDASNKYYADSVKGRFTISRDNSKNTLYLQMNSLRAEDTAVYYCARDRIVGEGFDYWGQGTLVTVSS VL: not shown | 0.36 |  | 19200 | 3.78 | 62500 |  | 100 |  |  | ~10 | 
PR006480 (antibody, human IgG1, kappa, L234A L235A, also called PR6480) heavy: not shown light: DIQMTQSPPSLSASVGDRVTITCRASQSISSYLNWFQQKAGKAPKLLISATSNLQSGVPSRFSGSGSGTDFTLTISSLQPEDLATYYCQQSYSSPYTFGQGTKVEIKRTVAAPSVFIFPPSDEQLKSGTASVVCLLNNFYPREAKVQWKVDNALQSGNSQESVTEQDSKDSTYSLSSTLTLSKADYEKHKVYACEVTHQGLSSPVTKSFNRGEC |  |  |  |  |  |  |  |  |  |  | 0.654
PR007223 (antibody, human IgG1, kappa, PTM variant of PR006895 (human IgG1)) heavy: not shown light: DIQLTQSPPSLSASVGDRVTITCRASQSISSYLNWFQQKAGKAPKLLISATSNLQSGVPSRFSGSGSGTDFTLTISSLQPEDLATYYCQQTYSSPYTFGQGTKVEIKRTVAAPSVFIFPPSDEQLKSGTASVVCLLNNFYPREAKVQWKVDNALQSGNSQESVTEQDSKDSTYSLSSTLTLSKADYEKHKVYACEVTHQGLSSPVTKSFNRGEC |  |  |  |  |  |  |  |  |  | ~10 | 0.578
